# Data as given in patent US20230057602A1 (Bristol-Myers Squibb, published 2023).
# T1: human B cell maturation antigen (BCMA) (human, UniProt Q02223 1-184)
# T1 sequence (looked up): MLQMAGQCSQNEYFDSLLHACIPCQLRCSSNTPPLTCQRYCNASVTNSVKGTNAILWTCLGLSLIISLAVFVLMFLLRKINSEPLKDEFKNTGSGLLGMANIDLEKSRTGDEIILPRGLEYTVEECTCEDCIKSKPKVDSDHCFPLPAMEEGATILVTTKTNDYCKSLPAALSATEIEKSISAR
# Target: T1, human B cell maturation antigen (BCMA)
# Test: cell-based or functional assay
binder,measurement,value
"CC-93269 (42-TCBcv) (bispecific antibody, human IgG1, kappa, L234A L235A) heavy 1: not shown heavy 2: EVQLLESGGGLVQPGGSLRLSCAASGFTFSDNAMGWVRQAPGKGLEWVSAISGPGSSTYYADSVKGRFTISRDNSKNTLYLQMNSLRAEDTAVYYCAKVLGWFDYWGQGTLVTVSSASTKGPSVFPLAPSSKSTSGGTAALGCLVEDYFPEPVTVSWNSGALTSGVHTFPAVLQSSGLYSLSSVVTVPSSSLGTQTYICNVNHKPSNTKVDEKVEPKSCDKTHTCPPCPAPEAAGGPSVFLFPPKPKDTLMISRTPEVTCVVVDVSHEDPEVKFNWYVDGVEVHNAKTKPREEQYNSTYRVVSVLTVLHQDWLNGKEYKCKVSNKALGAPIEKTISKAKGQPREPQVCTLPPSRDELTKNQVSLSCAVKGFYPSDIAVEWESNGQPENNYKTTPPVLDSDGSFFLVSKLTVDKSRWQQGNVFSCSVMHEALHNHYTQKSLSLSPGK light 1: EIVLTQSPGTLSLSPGERATLSCRASQSVSDEYLSWYQQKPGQAPRLLIHSASTRATGIPDRFSGSGSGTDFTLAISRLEPEDFAVYYCQQYGYPPDFTFGQGTKVEIKRTVAAPSVFIFPPSDRKLKSGTASVVCLLNNFYPREAKVQWKVDNALQSGNSQESVTEQDSKDSTYSLSSTLTLSKADYEKHKVYACEVTHQGLSSPVTKSFNRGEC light 2: EVQLLESGGGLVQPGGSLRLSCAASGFTFSTYAMNWVRQAPGKGLEWVSRIRSKYNNYATYYADSVKGRFTISRDDSKNTLYLQMNSLRAEDTAVYYCVRHGNFGNSYVSWFAYWGQGTLVTVSSASVAAPSVFIFPPSDEQLKSGTASVVCLLNNFYPREAKVQWKVDNALQSGNSQESVTEQDSKDSTYSLSSTLTLSKADYEKHKVYACEVTHQGLSSPVTKSFNRGEC","IC50 (ng/ml) of redirected lysis, H929 cells co-cultured with healthy donor T cells (E:T 1:1, 72 h), DMSO control, mean of 3 donors",3.42 ng/mL
same,"IC50 (ng/ml) of redirected lysis, H929 cells co-cultured with healthy donor T cells (E:T 1:1, 72 h), with 1 µM dexamethasone, mean of 3 donors",6.52 ng/mL
same,"IC50 (ng/ml) of redirected lysis, KMS12-PE cells co-cultured with healthy donor T cells (E:T 1:1, 72 h), DMSO control, mean of 3 donors",0.2 ng/mL
same,"IC50 (ng/ml) of redirected lysis, KMS12-PE cells co-cultured with healthy donor T cells (E:T 1:1, 72 h), with 1 µM dexamethasone, mean of 3 donors",3.61 ng/mL
same,"IC50 (ng/ml) of redirected lysis, MM1S cells co-cultured with healthy donor T cells (E:T 1:1, 72 h), DMSO control, mean of 3 donors",0.21 ng/mL
same,"IC50 (ng/ml) of redirected lysis, MM1S cells co-cultured with healthy donor T cells (E:T 1:1, 72 h), with 1 µM dexamethasone, mean of 3 donors",3.31 ng/mL
same,"IC50 (ng/ml) of redirected lysis, SKMM2 cells co-cultured with healthy donor T cells (E:T 1:1, 72 h), DMSO control, mean of 3 donors",0.09 ng/mL
same,"IC50 (ng/ml) of redirected lysis, SKMM2 cells co-cultured with healthy donor T cells (E:T 1:1, 72 h), with 1 µM dexamethasone, mean of 3 donors",0.34 ng/mL
